Assay results from the RNAGym collection of RNA variant scans (doi:10.1073/pnas.2313332121).

B1: TPR t1 (parent)
chain: GACCAAUCUGCCCUCAGAGCUCGAGAACAUCUUCGGAUGCAGAGGAGGCAGGCUUCGGUGGCGCGAUAGCGCCAACGUCCUCAACCUCCAAUGCAUCCCACCACAUGAUGAUGCCUGAAGAGCCUUGGUUUUUUG

Variants of: B1
Experiment: polymerase ribozyme fitness, log enrichment relative to wild type (log ratio); higher = more active; in vitro selection for triplet polymerase activity
How it was run: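 In triplicate, a single round of in vitro selection was run on each mutant library, PCR-built and transcribed, covering one subunit of a heterodimeric triplet polymerase ribozyme. Frozen incubation at −7 °C followed annealing with a biotinylated primer, partner subunit and triplets, and extended constructs were then gel-excised, streptavidin-captured and taken through RT-PCR. Fitness is the logarithm of genotype enrichment over wild-type enrichment, from inverse-variance-weighted replicate averages of Illumina-sequenced inputs and outputs. […] only genotypes with ≥10 input reads and ≥1 read per output were kept.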

Row | Variant | polymerase ribozyme fitness (log ratio)
1 | GACCAAUCUGCCCUCAGAGCUCGAGAACAUCUUCGGAUGCAGAGGAGGCAGGCUUCGGUGGCGCGAUAGCGGCAACGUCCUCAACCACCAAUGCAUCCCACCACAUGAUGAUGCCUGAAGAGCCUUGGUUUUUUG [C72G U87A] | -2.08
2 | GACCAAUCUGCCCUCAGAGCUCGAGAACAUCUUCGGAUGCAGAGGAGGCAGGCUUCGGUGGCGCGAUAGCGUCAACGUCCUCCACCUCCAAUGCAUCCCACCACAUGAUGAUGCGUGAAGAGCCUUGGUUUUUUG [C72U A83C C115G] | -1.78
3 | GACCAAUCUGCCCUCAGAGCUCGAGAACAUCUUCGGAUGCAGAGGAGGCAGGCUUCGGUGGCGCGAUAGCGGCAACGUCCUCAACCUCCAAUGCAUCCCACCACAUGAUGAUGCCUGAAGAGCCUGGGUUUUUUG [C72G U126G] | -2.09
4 | GACCAAUCUGCCCUCAGAGCUCGAGAACAUCUUCGGAUGCAGAGGAGGCAGGCUUCGGUGGCGCGAUAGCGGCAACGUCCUCAACCGCCAAUGCAUCCCACCACAUGAUGAUGCCUAAAGAGCCUUGGUUUUUUG [C72G U87G G117A] | -2.09
5 | GACCAAUCUGCCCUCAGAGCUCGAGAACAUCUUCGGAUGCAGAGGAGGCAGGCUUCGGUGGCGCGAUAGCGUCAACGUCCUCAACCUCCACUUCAUCCCACCACAUGAUGAUGCCUGAAGAGCCUGGGUUUUUUG [C72U A91C G93U U126G] | -4.23
6 | GACCAAUCUGCCCUCAGAGCUCGAGAACAUCUUCGGAUGCAGAGGAGGCAGGCUUCGGUGGCGCGAUAGCGUCAACGUCCUCAACCUCCAUUGCAUCCCUCCACAUGAUGAUGCCUGAUGAGCCUUGGUUUUUUG [C72U A91U A100U A119U] | -3.58
7 | GACCAAUCUGCCCUCAGAGCUCGAGAACAUCUUCGGAUGCAGAGGAGGCAGGCUUCGGUGGCGCGAUAGCGGCAACGUCCUCAACCUCCAAUGCAUCCCACCACAUGAUGAUGCCUGAAGAGCCUUGGUUGUUUG [C72G U131G] | -0.31
8 | GACCAAUCUGCCCUCAGAGCUCGAGAACAUCUUCGGAUGCAGAGGAGGCAGGCUUCGGUGGCGCGAUAGCGUCAACGUCCUCAACCUCCAAUGCAUCCCACCACAUGAUGAUGCCUGCAGAGCCUUGGUUUUUUG [C72U A118C] | -2.89
9 | GACCAAUCUGCCCUCAGAGCUCGAGAACAUCUUCGGAUGCAGAGGAGGCAGGCUUCGGUGGCGCGAUAGCGUCAACGUCCUCAACCUCCAAUGCAUCCCACCACGUGAUGAUGCCUGAAGAGCCUUGGUUUUUUG [C72U A105G] | -3.04
10 | GACCAAUCUGCCCUCAGAGCUCGAGAACAUCUUCGGAUGCAGAGGAGGCAGGCUUCGGUGGCGCGAUAGCGUCACCGUCCUCAACCUCCAAUGCAUCCCACCACAUGAUGAUGCCUGUAUAGCCUUGGUUUUUUG [C72U A75C A118U G120U] | -0.721
11 | GACCAAUCUGCCCUCAGAGCUCGAGAACAUCUUCGGAUGCAGAGGAGGCAGGCUUCGGUGGCGCGAUAGCGUCAACGUCCUCAACCUCCAAUGCAUCCCACCACAUGAUGAUGCCUGAAGAGCCUUGGUUUUUUG [C72U] | -0.393
12 | GACCAAUCUGCCCUCAGAGCUCGAGAACAUCUUCGGAUGCAGAGGAGGCAGGCUUCGGUGGCGCGAUAGCGGCAACGUCCUCAACCUCCAAUGCAUCCCACCACAAGAUGAUGCCUGAAGAGCCUUGGUUUUUUG [C72G U106A] | -0.511
13 | GACCAAUCUGCCCUCAGAGCUCGAGAACAUCUUCGGAUGCAGAGGAGGCAGGCUUCGGUGGCGCGAUAGCGUCAACGUCCUCAACCUCCAAUGCCUCCCACCACAUGAUGAUGCCUGAAGAGCCUUGGUUUUUUG [C72U A95C] | -0.818
14 | GACCAAUCUGCCCUCAGAGCUCGAGAACAUCUUCGGAUGCAGAGGAGGCAGGCUUCGGUGGCGCGAUAGCGUCUACGUCCUCAACCUCCAAUGCAUCCCACCACAAGAUGAUGCCUGAAGAGCCUUAGUUUUUUG [C72U A74U U106A G127A] | -1.68
15 | GACCAAUCUGCCCUCAGAGCUCGAGAACAUCUUCGGAUGCAGAGGAGGCAGGCUUCGGUGGCGCGAUAGCGUCAACGUCCUCAACCUCCAAUGCAUCCCACCACAUGAUGAUGCCUGAUGAGCCUUGGUUUUUUG [C72U A119U] | -0.327
16 | GACCAAUCUGCCCUCAGAGCUCGAGAACAUCUUCGGAUGCAGAGGAGGCAGGCUUCGGUGGCGCGAUAGCGGCAACGUCCUCAACCUCCAAUGCAUCCCACCACAUGAUGAUGCCUGAAGAGCCGUGGUUUUUUG [C72G U125G] | -1.12
17 | GACCAAUCUGCCCUCAGAGCUCGAGAACAUCUUCGGAUGCAGAGGAGGCAGGCUUCGGUGGCGCGAUAGCGUCAACGUCCUCAACCUCCAGUGCAUCCCACCAAAUGAUGAUGCCUGAAGAGCCUUCGUUUUUUG [C72U A91G C104A G127C] | -4.76
18 | GACCAAUCUGCCCUCAGAGCUCGAGAACAUCUUCGGAUGCAGAGGAGGCAGGCUUCGGUGGCGCGAUAGCGGCAACGUCCUCAACCUCCAACGCAUCCCACCACAUGAUGAUGCCUGAAGAGCCUUGGUUUUUUG [C72G U92C] | -1.36
19 | GACCAAUCUGCCCUCAGAGCUCGAGAACAUCUUCGGAUGCAGAGGAGGCAGGCUUCGGUGGCGCGAUAGCGUCAACGUCCUCUACCUCCAAUGCAUCUCACCACAUGAUGAUGCCUGAAGAGCCUUGGUUUUUUG [C72U A83U C98U] | -0.271
20 | GACCAAUCUGCCCUCAGAGCUCGAGAACAUCUUCGGAUGCAGAGGAGGCAGGCUUCGGUGGCGCGAUAGCGUCAUCGUCCUCAACCUCCAAUGCAUCCCACCACAUGAUGAUGACUGAAGACCCUUGGUUUUUUG [C72U A75U C114A G122C] | -2.52
21 | GACCAAUCUGCCCUCAGAGCUCGAGAACAUCUUCGGAUGCAGAGGAGGCAGGCUUCGGUGGCGCGAUAGCGGCAACGUCCUCAACCUCCAAUGCAUCCCACCACAUGAUGAAGCCUGAAGAGCCUUGGAUUUUUG [C72G U112A U129A] | 0.0162
